In publication PMC4407889, “Improved Catenated Structures of Bovine Peroxiredoxin III F190L Reveal Details of Ring-Ring Interactions and a Novel Conformational State” (PLoS ONE, 2015):

Biological target: the molecule itself
Assay: crystal structure; reduced form, crystallized in the presence of DTT; sitting-drop vapor diffusion, 16°C, 34% (v/v) 2-methyl-1,3-propanediol, 0.1 M phosphate-citrate pH 4.2; protein 15 mg/ml; space group P2(1)2(1)2; 2.2 Å

B1: bovine peroxiredoxin III F190L (enzyme, UniProt P35705 63-257, looked up)
chain: APAVTQHAPYFKGTAVVSGEFKEISLDDFKGKYLVLFFYPLDFTFVCPTEIIAFSDKASEFHDVNCEVVAVSVDSHFSHLAWINTPRKNGGLGHMNIALLSDLTKQISRDYGVLLEGPGLALRGLFIIDPNGVIKHLSVNDLPVGRSVEETLRLVKAFQFVEAHGEVCPANWTPESPTIKPHPTASREYLEKVNQ
notes: Mitochondrial 2-cys peroxiredoxin III (PrxIII), bovine, lacking its N-terminal 62 amino acid mitochondrial targeting signal; residue 1 is the N-terminal alanine of the mature protein; Construct in pET14b; Twelve chains form one (α2)6 dodecameric toroid, and two toroids interlock as a two-ring catenane in the crystal; In the oxidized form Cys47 of one monomer is disulfide-bonded to Cys168 of its …
- stoichiometry N: 12
